Results published in PMC7248283.
“And” between values parts separate entries of the source, which are not always exact repeats. Equal entries are not always repeated.

How the values were obtained:
[1] = target: FliS (flagellar export chaperone FliS of Helicobacter pylori), GST tag removed (Helicobacter pylori (strain 26695)); experiment: MST; labelled FliS or FliS-FlaBc (40 nM) mixed with HP1076 (6.2 μM to 0.189 nM, or 3.83 mM to 117 μM); 20 mM Tris pH 7.5, 150 mM NaCl, 2 mM DTT; 21.5°C
[2] = target: FliS-FlaBc complex (Helicobacter pylori (strain 26695) | Helicobacter pylori) (UniProt Q07911); experiment: as above
[3] = target: GST-FliS (Helicobacter pylori (strain 26695)); experiment: pull-down; competitive: the same experiment as a5, for purified HP1076 added at molar ratios to GST-FliS of 0, 0.5:1, 5:1 and 50:1 in the presence of H. pylori lysate; read-out is the flagellin band

B1: His-HP1076 (natural protein)
chain: MDILKTLQKHLGDVETSDFTTNAIEKSQQIAKFSRDMKNINESVGALQVLQIACKKLFNKSMGLEDKDALQASIIKQELREIVENCQFLASPLFDTQLNIAINDEIFSMIVVNPLDLLENVGEFQAYLEEKLNEIKELLGYLSESLSNPKAFMPSFSNQSLKDLLSDNLRA
- Kd [1]: 0.015 µM
- Kd [2]: 1600 µM
- binding of flagellin (FlaA/FlaB band) to GST-FliS left when saturated by HP1076 (fraction of the binding without HP1076) [3]: 0.2 and 0.25
